Test results taken from patent publication US20220178930A1.
Where “and” joins values, the source holds several entries; their conditions need not be identical. Equal entries are not always repeated.

Assays:
Galectin-9 (human) [1] = target: Galectin-9 (human) (UniProt O00182); assay: flow cytometry, CD3+ T cells, S3 organoid fraction, CRC
Galectin-9 (human) [2] = target: Galectin-9 (human) (UniProt O00182); assay: flow cytometry, CD3+ T cells, S3 organoid fraction, HCC
Galectin-9 (human) [3] = target: Galectin-9 (human) (UniProt O00182); assay: flow cytometry, CD3+ T cells, S3 organoid fraction, PDA
Galectin-9 (human) [4] = target: Galectin-9 (human) (UniProt O00182); assay: flow cytometry, CD3+ T cells, S2 single cell fraction, CRC
Galectin-9 (human) [5] = target: Galectin-9 (human) (UniProt O00182); assay: flow cytometry, CD3+ T cells, S2 single cell fraction, PDA
Galectin-9 (human) [6] = target: Galectin-9 (human) (UniProt O00182); assay: flow cytometry, EPCAM+ tumor cells, S3 organoid fraction, CRC
Galectin-9 (human) [7] = target: Galectin-9 (human) (UniProt O00182); assay: flow cytometry, EPCAM+ tumor cells, S3 organoid fraction, HCC
Galectin-9 (human) [8] = target: Galectin-9 (human) (UniProt O00182); assay: flow cytometry, EPCAM+ tumor cells, S3 organoid fraction, PDA
Galectin-9 (human) [9] = target: Galectin-9 (human) (UniProt O00182); assay: flow cytometry, CD11b+ myeloid cells, S3 organoid fraction, CRC
Galectin-9 (human) [10] = target: Galectin-9 (human) (UniProt O00182); assay: flow cytometry, CD11b+ myeloid cells, S3 organoid fraction, HCC
Galectin-9 (human) [11] = target: Galectin-9 (human) (UniProt O00182); assay: flow cytometry, CD11b+ myeloid cells, S3 organoid fraction, PDA
Galectin-9 (human) [12] = target: Galectin-9 (human) (UniProt O00182); assay: flow cytometry, EPCAM+ tumor cells, S2 single cell fraction, CRC
Galectin-9 (human) [13] = target: Galectin-9 (human) (UniProt O00182); assay: flow cytometry, EPCAM+ tumor cells, S2 single cell fraction, PDA
Galectin-9 (human) [14] = target: Galectin-9 (human) (UniProt O00182); assay: flow cytometry, CD3+ T cells, S3 organoid fraction, Pancreas NET
Galectin-9 (human) [15] = target: Galectin-9 (human) (UniProt O00182); assay: flow cytometry, CD11b+ myeloid cells, S2 single cell fraction, CRC
Galectin-9 (human) [16] = target: Galectin-9 (human) (UniProt O00182); assay: flow cytometry, CD11b+ myeloid cells, S2 single cell fraction, PDA
Galectin-9 (human) [17] = target: Galectin-9 (human) (UniProt O00182); assay: flow cytometry, EPCAM+ tumor cells, S3 organoid fraction, Liver NET
Galectin-9 (human) [18] = target: Galectin-9 (human) (UniProt O00182); assay: flow cytometry, CD3+ T cells, S2 single cell fraction, Pancreas NET
Galectin-9 (human) [19] = target: Galectin-9 (human) (UniProt O00182); assay: flow cytometry, EPCAM+ tumor cells, S2 single cell fraction, Liver NET
Galectin-9 (human) [20] = target: Galectin-9 (human) (UniProt O00182); assay: flow cytometry, EPCAM+ tumor cells, S3 organoid fraction, Pancreas NET
Galectin-9 (human) [21] = target: Galectin-9 (human) (UniProt O00182); assay: flow cytometry, CD11b+ myeloid cells, S3 organoid fraction, Pancreas NET
Galectin-9 (human) [22] = target: Galectin-9 (human) (UniProt O00182); assay: flow cytometry, CD3+ T cells, S3 organoid fraction, CRC liver metastasis
Galectin-9 (human) [23] = target: Galectin-9 (human) (UniProt O00182); assay: flow cytometry, EPCAM+ tumor cells, S2 single cell fraction, Pancreas NET
Galectin-9 (human) [24] = target: Galectin-9 (human) (UniProt O00182); assay: flow cytometry, CD11b+ myeloid cells, S2 single cell fraction, Pancreas NET
Galectin-9 (human) [25] = target: Galectin-9 (human) (UniProt O00182); assay: flow cytometry, CD3+ T cells, S2 single cell fraction, CRC liver metastasis
Galectin-9 (human) [26] = target: Galectin-9 (human) (UniProt O00182); assay: flow cytometry, EPCAM+ tumor cells, S3 organoid fraction, CRC liver metastasis
Galectin-9 (human) [27] = target: Galectin-9 (human) (UniProt O00182); assay: flow cytometry, CD11b+ myeloid cells, S3 organoid fraction, CRC liver metastasis
Galectin-9 (human) [28] = target: Galectin-9 (human) (UniProt O00182); assay: flow cytometry, EPCAM+ tumor cells, S2 single cell fraction, CRC liver metastasis
Galectin-9 (human) [29] = target: Galectin-9 (human) (UniProt O00182); assay: flow cytometry, CD11b+ myeloid cells, S2 single cell fraction, CRC liver metastasis

Galectin-9 (human), sequence (O00182 whole entry): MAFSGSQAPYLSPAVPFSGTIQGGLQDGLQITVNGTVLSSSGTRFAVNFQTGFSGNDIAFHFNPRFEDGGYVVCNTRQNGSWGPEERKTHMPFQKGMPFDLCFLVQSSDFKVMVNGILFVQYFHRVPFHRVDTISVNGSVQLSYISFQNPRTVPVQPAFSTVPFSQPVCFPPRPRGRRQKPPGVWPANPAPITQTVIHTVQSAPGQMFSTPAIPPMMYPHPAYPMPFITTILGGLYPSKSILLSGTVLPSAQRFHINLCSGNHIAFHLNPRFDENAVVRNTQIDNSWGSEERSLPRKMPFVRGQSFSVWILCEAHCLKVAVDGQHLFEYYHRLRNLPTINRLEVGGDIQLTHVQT

Fab isotype
% Gal9 expression based on staining (Galectin-9 (human) [1]): 0% and 15.3% and 0.87% | % Gal9 expression based on staining (Galectin-9 (human) [2]): 1.14% | % Gal9 expression based on staining (Galectin-9 (human) [3]): 0% and 0.59% | % Gal9 expression based on staining (Galectin-9 (human) [4]): 2.5% and 1.59% | % Gal9 expression based on staining (Galectin-9 (human) [5]): 0% and 0.52% | % Gal9 expression based on staining (Galectin-9 (human) [6]): 0.21% and 2.27% and 0.55% | % Gal9 expression based on staining (Galectin-9 (human) [7]): 5.84% | % Gal9 expression based on staining (Galectin-9 (human) [8]): 0.17% and 0.94% | % Gal9 expression based on staining (Galectin-9 (human) [9]): 0.38% and 11.8% and 2.4% | % Gal9 expression based on staining (Galectin-9 (human) [10]): 1.72% | % Gal9 expression based on staining (Galectin-9 (human) [11]): 3.83% and 0.54% | % Gal9 expression based on staining (Galectin-9 (human) [12]): 0.64% and 3.97% | % Gal9 expression based on staining (Galectin-9 (human) [13]): 0.15% and 0.88% | % Gal9 expression based on staining (Galectin-9 (human) [14]): 4.96% | % Gal9 expression based on staining (Galectin-9 (human) [15]): 2.86% and 5.84% | % Gal9 expression based on staining (Galectin-9 (human) [16]): 1.19% and 0% | % Gal9 expression based on staining (Galectin-9 (human) [17]): 0.02% | % Gal9 expression based on staining (Galectin-9 (human) [18]): 32.2% | % Gal9 expression based on staining (Galectin-9 (human) [19]): 0.45% | % Gal9 expression based on staining (Galectin-9 (human) [20]): 4.19% | % Gal9 expression based on staining (Galectin-9 (human) [21]): 1.87% | % Gal9 expression based on staining (Galectin-9 (human) [22]): 0% | % Gal9 expression based on staining (Galectin-9 (human) [23]): 2.41% | % Gal9 expression based on staining (Galectin-9 (human) [24]): 16.2% | % Gal9 expression based on staining (Galectin-9 (human) [25]): 0.56% | % Gal9 expression based on staining (Galectin-9 (human) [26]): 0.06% | % Gal9 expression based on staining (Galectin-9 (human) [27]): 1.5% | % Gal9 expression based on staining (Galectin-9 (human) [28]): 0.15% | % Gal9 expression based on staining (Galectin-9 (human) [29]): 1.2%
